Results from publication PMC3584034.

Tests used:
[1] = molecular target: T1, EpCAM (human (breast and colon cancer cell lines)) (UniProt P16422); experiment: cell binding (cited); conditions: 2'-fluoropyrimidine (Methods: 2'-fluoropyrimidine or 2'-O-methyl-pyrimidine bases); 3' inverted dT; FFPE staining: PBS, 5 mM MgCl2, 0.1 mg/mL tRNA, 1 mg/mL BSA, 10% dextran sulphate, 500 ug/mL heparin, 100 nM aptamer, 15 min, 37 C; flow cytometry: 100 nM …; cited from earlier work
T1 sequence: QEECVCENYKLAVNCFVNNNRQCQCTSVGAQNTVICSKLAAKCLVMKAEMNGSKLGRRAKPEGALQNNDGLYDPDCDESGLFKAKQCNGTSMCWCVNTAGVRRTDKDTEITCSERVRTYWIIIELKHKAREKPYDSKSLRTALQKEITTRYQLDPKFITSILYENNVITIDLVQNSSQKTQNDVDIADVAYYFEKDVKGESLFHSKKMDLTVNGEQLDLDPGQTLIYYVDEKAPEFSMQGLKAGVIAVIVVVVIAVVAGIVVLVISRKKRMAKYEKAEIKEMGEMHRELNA

[2] = molecular target: T1, EpCAM (human (breast and colon cancer cell lines)); experiment: cell binding (method not given); conditions: 2'-fluoropyrimidine (Methods: 2'-fluoropyrimidine or 2'-O-methyl-pyrimidine bases); 3' inverted dT; FFPE staining: PBS, 5 mM MgCl2, 0.1 mg/mL tRNA, 1 mg/mL BSA, 10% dextran sulphate, 500 ug/mL heparin, 100 nM aptamer, 15 min, 37 C; flow cytometry: 100 nM …

Sequence | Kd [1] [nM] | Kd [2] [nM]
GCGACUGGUUACCCGGUCG [DT3] | 158 | 
ACGUAUCCCUUUUCGCGUA [Ep23] |  | 37
